# Patent publication US20180320194A1 (PURDUE RESEARCH FOUNDATION, published 2018)
# T1: ABF2, Q9M7Q4
# T1 chain: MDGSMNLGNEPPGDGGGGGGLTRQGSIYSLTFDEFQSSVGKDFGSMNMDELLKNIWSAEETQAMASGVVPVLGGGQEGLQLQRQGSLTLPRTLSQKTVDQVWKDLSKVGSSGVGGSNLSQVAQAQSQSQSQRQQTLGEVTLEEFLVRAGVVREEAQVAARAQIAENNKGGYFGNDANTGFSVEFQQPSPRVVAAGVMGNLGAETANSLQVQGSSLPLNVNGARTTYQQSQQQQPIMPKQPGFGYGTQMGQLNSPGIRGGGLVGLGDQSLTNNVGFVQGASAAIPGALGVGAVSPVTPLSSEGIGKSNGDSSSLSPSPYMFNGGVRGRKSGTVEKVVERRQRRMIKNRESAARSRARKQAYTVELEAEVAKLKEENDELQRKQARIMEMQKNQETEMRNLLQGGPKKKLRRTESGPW
# T2: PP2CA (Arabidopsis, UniProt P49598 1-399)
# T2 construct: Endogenous protein co-purified from seedlings and identified by MS
# T2 sequence (looked up): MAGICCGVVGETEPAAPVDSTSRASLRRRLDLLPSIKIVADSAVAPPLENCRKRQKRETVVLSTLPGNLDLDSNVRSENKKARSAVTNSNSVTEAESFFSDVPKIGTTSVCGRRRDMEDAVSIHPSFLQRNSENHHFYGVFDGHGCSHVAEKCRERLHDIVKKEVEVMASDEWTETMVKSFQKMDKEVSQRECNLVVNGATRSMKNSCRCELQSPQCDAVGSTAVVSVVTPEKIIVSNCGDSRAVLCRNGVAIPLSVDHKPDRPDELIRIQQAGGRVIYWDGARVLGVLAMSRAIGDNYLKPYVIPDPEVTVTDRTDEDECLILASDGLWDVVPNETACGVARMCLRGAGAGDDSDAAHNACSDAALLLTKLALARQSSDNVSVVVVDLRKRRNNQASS
# T3: ABA-insensitive 1 (ABI1) (Arabidopsis, UniProt P49597 1-434)
# T3 construct: Endogenous protein in the TAP-MS experiment
# T3 sequence (looked up): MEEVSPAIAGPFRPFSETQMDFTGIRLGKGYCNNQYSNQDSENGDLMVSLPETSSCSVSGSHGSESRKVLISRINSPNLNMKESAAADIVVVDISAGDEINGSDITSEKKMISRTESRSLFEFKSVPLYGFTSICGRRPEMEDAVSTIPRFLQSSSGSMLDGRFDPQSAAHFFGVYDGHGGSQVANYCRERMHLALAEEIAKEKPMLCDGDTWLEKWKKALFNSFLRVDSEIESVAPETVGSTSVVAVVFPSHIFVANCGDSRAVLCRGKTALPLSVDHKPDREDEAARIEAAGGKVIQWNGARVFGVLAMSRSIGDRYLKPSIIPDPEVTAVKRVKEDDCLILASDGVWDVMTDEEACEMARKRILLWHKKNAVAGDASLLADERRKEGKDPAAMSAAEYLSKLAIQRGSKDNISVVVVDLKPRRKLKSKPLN
# Assays:
# ABF2, Q9M7Q4 = biological target: T1, ABF2, Q9M7Q4
# PP2CA = biological target: T2, PP2CA; test: tandem affinity purification (anti-HA agarose, GFP-Trap) from seedlings, MS identification
# Method: (§1) Ten-day-old seedlings of the transgenic Arabidopsis plants expressing ProPYL9:PYL9-HA-YFP (FIG. 12A) were used for tandem affinity purification. Seedlings (3-4 g fresh weight) were treated for 1 h with ½ Murashige and Skoog medium containing 100 μM ABA or 30 min with ½ Murashige and Skoog medium containing 0.8 M mannitol; for the control, seedlings were treated with ½ Murashige and Skoog medium for 1 h. After treatment, samples were quickly frozen, ground in liquid N₂, homogenized in an equal volume of 2× immunoprecipitation (IP) buffer (100 mM Tris.HCl, pH 7.5, 300 mM NaCl, 2 mM EDTA, 0.2% Nonidet P-40, 2× protease mixture; Roche), and then, centrifuged at 30,000×g for 30 min at 4° C. The supernatant was passed through a 0.2-μM filter and centrifuged again at 30,000×g for 30 min at 4° C. After that, the supernatant was incubated with 40 μL 50% (vol/vol) slurry of monoclonal anti-HA agarose with antibody produced in mouse (A2095; Sigma), which was prebalanced with 1×IP buffer. The mixture was inverted for 1 h at 4° C. on a shaker. The agarose was then washed four times with 1×IP buffer, three times with high NaCl buffer (50 mM Tris.HCl, pH 7.5, 500 mM NaCl, 1 mM EDTA), and finally, three times with 1×IP buffer. The protein that had bound to the anti-HA agarose was eluted by HA peptide (ab13835; Abcam) with a concentration of […] in 200 μL 1×IP buffer overnight at 4° C. […]
# ABA-insensitive 1 (ABI1) = biological target: T3, ABA-insensitive 1 (ABI1); test: as above
# Method: as §1
# [1] = biological target: T4, PYL9 fused to the GAL4-DNA-binding domain (BD-PYL9) (Arabidopsis); test: yeast two-hybrid, growth on media lacking His with and without ABA
# T4 construct: Y2H bait; also called pBD-GAL4-PYL9
binder,measurement,setting,value
SnRK2.6 (protein) MDRPAVSGPMDLPIMHDSDRYELVKDIGSGNFGVARLMRDKQSNELVAVKYIERGEKIDENVKREIINHRSLRHPNIVRFKEVILTPTHLAIVMEYASGGELFERICNAGRFSEDEARFFFQQLISGVSYCHAMQVCHRDLKLENTLLDGSPAPRLKICDFGYSKSSVLHSQPKSTVGTPAYIAPEVLLKKEYDGKVADVWSCGVTLYVMLVGAYPFEDPEEPKNFRKTIHRILNVQYAIPDYVHISPECRHLISRIFVADPAKRISIPEIRNHEWFLKNLPADLMNDNTMTTQFDESDQPGQSIEEIMQIIAEATVPPAGTQNLNHYLTGSLDIDDDMEEDLESDLDDLDIDSSGEIVYAM,SAG12-LUC expression in protoplasts,"ABF2, Q9M7Q4",Expression of SnRK2.6 significantly enhanced the ability of ABF2 to increase SAG12-LUC expression in the presence of ABA
"HA- and YFP-tagged PYL9 (PYL9-HA-YFP) (receptor, Expressed under the native PYL9 promoter in transgenic Arabidopsis seedlings; also called ProPYL9:PYL9-HA-YFP; not shown: 3HA tag at the C terminus; YFP tag at the C terminus) MMDGVEGGTAMYGGLETVQYVRTHHQHLCRENQCTSALVKHIKAPLHLVWSLVRRFDQPQKYKPFVSRCTVIGDPEIGSLREVNVKSGLPATTSTERLELLDDEEHILGIKIIGGDHRLKNYSSILTVHPEIIEGRAGTMVIESFVVDVPQGNTKDETCYFVEALIRCNLKSLADVSERLASQDITQ",binding result,PP2CA,binds
same,binding result,ABA-insensitive 1 (ABI1),binds
"activating domain (AD) alone (other, UniProt P04386 768-881, looked up, Negative control prey in the Y2H assay) ANFNQSGNIADSSLSFTFTNSSNGPNLITTQTNSQALSQPIASSNVHDNFMNNEITASKIDDGNNSKPLSPGWTDQTAYNAFGITTGMFNTTTMDDVYNYLFDDEDTPPNPKKE",binding result,[1],no binding
